Results on two molecules are retold here after paper PMC12578283 (Protein & Cell, 2025).

For this experiment, the target named is p15 protein of African swine fever virus (African swine fever virus, UniProt Q65179).

B1: 4C7 (antibody, V domains shown)
VH: QVQLHQPGSVLVRPGTSVKLSCKASGYTFTSSWMNWAKQRPGQGLEWIGEIHPRSGNTNYNENFKGKATLTVDTSSSTAYVDLSSLASEDSAVYYCARSGGTYYYAMDSWGQGTSVTVSS
VL: DIQMTQTTSSLSASLGDRVTISCRASQDISNYLNWYQQKPDGTVKLLIYYTSRLHSGVPSRFSGSGSGTDFSLTISTLEQEDFATYFCQQANTSPYTFGGGTKLEIN
B1: the binding result is reported as “binds”.

B2: 1G9 (antibody, V domains shown)
VH: QVQLQQPGPELVRPGASVKLSCKASGYTFTTYWMKWVRQRPGQGLEWIGTIDPSDNEIHYNQIFKDKATLTVDKSSSTAYMHLSSLTSEDAAVYYCARWDGTSYYAMDYWGQGTSVTVSS
VL: DVVMSQTPLSLPVSLGDQASISCRSSQSLVHSNGNTYLHWYLQKPGQSPKLLIYKVSNRFSGVPDRFSGSGSGTDFTLKISRVEAEDLGVYFCSQSTHVPPTFGGGTKLEIK
With B2, the binding result was “binds”.
